{
  "source": "paper PMC8043444",
  "target": "SARS-CoV-2 RBD WT for SPR binding assays (SARS-CoV-2) (UniProt P0DTC2)",
  "data": [
    {"substance": "S309 IgG1 (LS) (antibody)", "values": [
      {"measurement": "neutralisation of authentic SARS-CoV-2-Nluc on Vero E6 cells (IF/luc), IC50", "result": 78.9},
      {"measurement": "neutralisation of authentic SARS-CoV-2-Nluc on Vero E6 cells (IF/luc), IC90", "result": 300}
    ]}
  ]
}
